# Assay results: US6555522B1, “Peptides and other small molecules derived from regions of interacting proteins and uses thereof” (Mount Sinai School of Medicine of the City of New York, priority 1998, dated 2003)
# “Also recorded” adds a separate entry of the source. Ends that are not written are not given here.
# Legend:
# [1] = biological target: T1, phospholipase C-β2 (PLC-β2) (Homo sapiens, UniProt Q00722); assay: PLC assay, [3H]PIP2 hydrolysis by recombinant PLC-β2; assay type: biochemical; details: for affinity of PLC-β2 stimulation compared with parent or comparator peptide (in words) / maximal stimulation / efficacy on PLC-β2 (in words): concentration-effect curves; for stimulation of PLC-β2 activity by peptide itself (in words): basal, no Gβγ unless stated, short peptides at 100 μM; for effect on Gβγ stimulation of PLC-β2 (in words): Gβγ 100 nM
# T1 construct: made in house; host or cells: High 5 insect cells (baculovirus); cytosolic fraction used, not purified
# Protocol: Recombinant PLC-β2 was expressed in High 5 cells by infection with recombinant baculovirus. Three to four days after infection, the cells were lysed by par bombing to 600 psi. The lysate was then centrifuged, and the cytosolic fraction was collected. Approximately 10-15 μg of cytosolic fraction was used per 100 μl reaction volume. Phospholipid substrate is a mixture of [3H]PIP2 and unlabeled phospholipids. Unlabeled phospholipids, from Sigma (P-6023), are crude phospholipids from bovine brain. The total diphosphoinositide and triphosphoinositide content is 20-40%. The remainder is a mixture of phosphotidylinositol and phosphotidylserine. Phospholipids are sonicated in 10 mM Hepes pH 7.0 to form micelles. A total of 0.01 μCi of [3H]PIP2, corresponding to approximately 7000 cpm, and 5 μg of unlabeled mixed phospholipids are used per reaction.
# The PLC assay was performed as previously described (De Vivo, 1994, Meth. Enzymol. 238, 131). Briefly, substrate, PLC-β2, peptide, and Gβγ subunits are mixed on ice in a 100 μl volume buffer containing 10 mM Hepes pH 7.0, 1 mM DTT, 100 mM KCl, 10 mM NaCl, 2 mM EGTA, 1 mM EDTA, and 1 mM MgCl2. Reactions are started by the addition of 25 μl 5 mM CaCl2 and incubated at 32 degrees C. for 15 minutes. Reactions are stopped by the addition of 1 ml CMH (chloroform:methanol:H2O=100:100:1 by volume) and 250 μl 10 mM EDTA. After extraction, 400 μl aqueous phase is counted using a Beckman scintillation counter. All experiments were repeated at least thrice with very similar results. For concentration-effect curves, typical experiments are shown.
# adenylyl cyclase 2 (AC2) = biological target: T2, adenylyl cyclase 2 (AC2) (Rattus norvegicus, UniProt P26769); assay: Adenylyl cyclase assay, recombinant AC2 in Sf9 cell membranes; assay type: biochemical; details: αs* 2 nM plus Gβγ 50 nM; TTN at 100 μM
# T2 construct: made in house; host or cells: Sf9 cells (baculovirus); membranes used
# Source text: (§1) Expression of G-Protein Subunits And Adenylyl Cyclases. Gβγ was purified from bovine brain (Dingus et al., 1994, Meth. Enzymol. 237, 457-471). Q227L-Gαs was expressed in rabbit reticulocyte lysates. AC2 was expressed in Sf9 cells by infection with recombinant baculovirus (Jacobowitz and Iyengar, 1994, Proc. Natl. Acad. Sci. U.S.A. 91, 10630-10634). AC2 assays have been described (Chen et al., 1995, Science 268, 1166-1169). Bovine AC1 (Jacobowitz et al., 1993, J. Biol. Chem. 268, 3829-3832) was epitope tagged at the N terminus with the FLAG epitope (Jacobowitz and Iyengar, 1994, Proc. Natl. Acad. Sci. U.S.A. 91, 10630-10634) and expressed in Sf9 cells by baculovirus infection.
# Adenylyl Cyclase Assays. AC2 assays have been described (Chen et al., 1995, Science 268, 1166-1169). When required the peptides were mixed with adenylyl cyclase containing membranes and held on ice for 10 min prior to assays. Approximately 1-4 μg of AC2 Sf9 cell membranes per assay tube was used. All assays contained a mixture of protease inhibitors. The final concentration of each inhibitor was leupeptin at 3.2 μg/ml, aprotinin at 2 μg/ml, phenanthroline at 1.0 mM, and phenylmethylsulfonyl fluoride at 1.0 mM. To study Gβγ inhibition, AC1-containing Sf9 cell membranes (1-4 μg per assay tube) was used. […]
# adenylyl cyclase 1 (AC1) = biological target: T3, adenylyl cyclase 1 (AC1) (Bos taurus, UniProt P19754); assay: Adenylyl cyclase assay, recombinant AC1 in Sf9 cell membranes; assay type: biochemical, bovine; details: for inhibition of Ca2+/CaM-stimulated AC1 activity by peptide alone (in words): CaM 100 nM; for blockade of Gβγ inhibition of Ca2+/CaM-stimulated AC1: CaM 100 nM plus Gβγ 30 nM
# T3 construct: made in house; host or cells: Sf9 cells (baculovirus); membranes used
# Source text: as §1
# Adenylyl Cyclase Assays. AC2 assays have been described (Chen et al., 1995, Science 268, 1166-1169). When required the peptides were mixed with adenylyl cyclase containing membranes and held on ice for 10 min prior to assays. Approximately 1-4 μg of AC2 Sf9 cell membranes per assay tube was used. All assays contained a mixture of protease inhibitors. The final concentration of each inhibitor was leupeptin at 3.2 μg/ml, aprotinin at 2 μg/ml, phenanthroline at 1.0 mM, and phenylmethylsulfonyl fluoride at 1.0 mM. To study Gβγ inhibition, AC1-containing Sf9 cell membranes (1-4 μg per assay tube) was used. In these assays, in addition to the other standard reagents, the assay mixture contained either 1 mM EGTA or 50 μM CaCl2 plus 100 nM calmodulin (CaM). All experiments were repeated two or more times with qualitatively similar results. Typical experiments are shown. Values are mean±SD of triplicate determinations.
# PLC-β2 = biological target: T4, PLC-β2 (Homo sapiens, UniProt Q00722); assay: Fluorescent resonance energy transfer binding of DABMI-labeled peptide to Cascade Blue-labeled PLC-β2; details: FRET
# T4 construct: made in house; host or cells: Sf9 cells; purified as in Runnel et al. 1996
# Protocol: For fluorescent resonance energy transfer experiments, recombinant PLC-β2 was expressed in Sf9 cells and purified as described (Runnel et al., 1996, Biochem. 35, 16824) and labeled with the amine-reactive probe, Cascade Blue acetyl azide (Molecular Probes, Eugene Oreg.) by raising the pH to 8.0 and adding a 4-fold excess of probe from a freshly prepared concentrated DMF solution. The reaction was kept on ice for 30 minutes before extensive dialysis in a solution comprising 20 mM Hepes, 0.16 M NaCl, 1 mM DTT, pH 7.2 to remove excess probe. Peptides were labeled with DABMI (4-dimethyl-5aminophenylazophenyl-4′-maleimeide) using an equimolar amount of dye in the absence of reducing agents. The reaction was allowed to proceed for 30 minutes at room temperature before quenching with 5 mM DTT. The final labeling ratios, as determined by absorption, were 1:1 for CB-PLC-β2 and 0.8 for the two DABMI-peptides. Fluorescence spectra were taken on an ISS-PCL (ISS Champaign, Ill.) photon counting spectrofluorometer using a 3×3 mm cuvette and exciting at 380 nm and scanning from 400-560 nm.
# T3 sequence (P19754 whole entry): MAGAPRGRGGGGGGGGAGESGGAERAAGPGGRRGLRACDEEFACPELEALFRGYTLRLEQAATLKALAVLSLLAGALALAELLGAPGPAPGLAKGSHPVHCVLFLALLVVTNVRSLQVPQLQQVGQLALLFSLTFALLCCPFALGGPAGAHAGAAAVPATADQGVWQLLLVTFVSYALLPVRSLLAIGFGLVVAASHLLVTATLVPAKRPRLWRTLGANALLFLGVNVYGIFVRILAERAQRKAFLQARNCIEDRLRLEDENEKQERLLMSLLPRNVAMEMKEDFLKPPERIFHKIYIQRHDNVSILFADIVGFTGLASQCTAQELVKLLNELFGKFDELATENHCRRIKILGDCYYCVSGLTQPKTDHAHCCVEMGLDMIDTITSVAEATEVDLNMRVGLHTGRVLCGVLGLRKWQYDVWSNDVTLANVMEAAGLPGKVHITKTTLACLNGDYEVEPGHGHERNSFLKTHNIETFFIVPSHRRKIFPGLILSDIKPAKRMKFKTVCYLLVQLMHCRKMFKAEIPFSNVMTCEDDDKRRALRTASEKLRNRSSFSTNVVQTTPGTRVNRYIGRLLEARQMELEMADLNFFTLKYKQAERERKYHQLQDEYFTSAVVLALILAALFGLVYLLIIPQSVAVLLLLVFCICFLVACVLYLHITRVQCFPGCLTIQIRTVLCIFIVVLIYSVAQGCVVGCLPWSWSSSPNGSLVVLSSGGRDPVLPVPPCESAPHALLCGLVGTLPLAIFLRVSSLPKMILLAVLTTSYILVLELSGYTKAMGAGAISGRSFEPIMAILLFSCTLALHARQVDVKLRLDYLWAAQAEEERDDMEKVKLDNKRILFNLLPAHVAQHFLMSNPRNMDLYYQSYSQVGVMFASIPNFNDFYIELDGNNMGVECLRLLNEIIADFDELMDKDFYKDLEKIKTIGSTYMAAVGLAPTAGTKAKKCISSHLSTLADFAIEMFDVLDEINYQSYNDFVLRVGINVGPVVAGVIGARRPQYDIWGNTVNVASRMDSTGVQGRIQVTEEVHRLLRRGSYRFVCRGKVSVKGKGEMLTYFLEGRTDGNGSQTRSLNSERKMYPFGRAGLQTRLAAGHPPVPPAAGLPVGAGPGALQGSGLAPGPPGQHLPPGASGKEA
# T1 sequence (Q00722 whole entry): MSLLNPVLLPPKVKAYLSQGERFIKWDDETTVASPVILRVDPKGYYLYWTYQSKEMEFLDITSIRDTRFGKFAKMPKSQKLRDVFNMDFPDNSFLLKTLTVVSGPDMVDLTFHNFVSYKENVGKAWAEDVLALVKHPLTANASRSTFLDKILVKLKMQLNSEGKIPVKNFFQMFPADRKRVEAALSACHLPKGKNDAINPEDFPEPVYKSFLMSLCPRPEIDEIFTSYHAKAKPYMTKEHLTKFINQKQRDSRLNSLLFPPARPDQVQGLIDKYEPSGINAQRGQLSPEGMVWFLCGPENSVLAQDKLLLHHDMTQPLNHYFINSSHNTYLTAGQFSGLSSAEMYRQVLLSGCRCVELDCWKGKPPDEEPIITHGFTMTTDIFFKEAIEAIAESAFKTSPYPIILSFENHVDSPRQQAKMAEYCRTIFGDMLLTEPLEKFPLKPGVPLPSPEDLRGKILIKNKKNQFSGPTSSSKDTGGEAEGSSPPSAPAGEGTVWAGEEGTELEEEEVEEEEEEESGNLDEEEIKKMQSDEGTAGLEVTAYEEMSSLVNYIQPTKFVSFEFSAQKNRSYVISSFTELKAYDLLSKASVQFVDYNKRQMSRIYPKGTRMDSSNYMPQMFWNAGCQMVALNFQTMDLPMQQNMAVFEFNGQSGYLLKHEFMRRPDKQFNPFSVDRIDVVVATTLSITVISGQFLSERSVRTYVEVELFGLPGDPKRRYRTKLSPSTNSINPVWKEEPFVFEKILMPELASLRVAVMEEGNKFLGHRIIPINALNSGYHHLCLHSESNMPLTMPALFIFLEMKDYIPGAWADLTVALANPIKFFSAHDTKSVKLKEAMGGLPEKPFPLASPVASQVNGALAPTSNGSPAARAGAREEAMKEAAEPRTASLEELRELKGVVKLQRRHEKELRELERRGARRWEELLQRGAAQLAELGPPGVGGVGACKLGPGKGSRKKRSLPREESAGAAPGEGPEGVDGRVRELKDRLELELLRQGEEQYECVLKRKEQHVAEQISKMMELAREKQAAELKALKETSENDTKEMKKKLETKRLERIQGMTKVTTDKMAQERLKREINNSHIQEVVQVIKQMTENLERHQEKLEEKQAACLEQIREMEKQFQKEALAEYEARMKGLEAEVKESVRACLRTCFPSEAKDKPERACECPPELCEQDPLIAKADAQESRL
# T2 sequence (P26769 whole entry): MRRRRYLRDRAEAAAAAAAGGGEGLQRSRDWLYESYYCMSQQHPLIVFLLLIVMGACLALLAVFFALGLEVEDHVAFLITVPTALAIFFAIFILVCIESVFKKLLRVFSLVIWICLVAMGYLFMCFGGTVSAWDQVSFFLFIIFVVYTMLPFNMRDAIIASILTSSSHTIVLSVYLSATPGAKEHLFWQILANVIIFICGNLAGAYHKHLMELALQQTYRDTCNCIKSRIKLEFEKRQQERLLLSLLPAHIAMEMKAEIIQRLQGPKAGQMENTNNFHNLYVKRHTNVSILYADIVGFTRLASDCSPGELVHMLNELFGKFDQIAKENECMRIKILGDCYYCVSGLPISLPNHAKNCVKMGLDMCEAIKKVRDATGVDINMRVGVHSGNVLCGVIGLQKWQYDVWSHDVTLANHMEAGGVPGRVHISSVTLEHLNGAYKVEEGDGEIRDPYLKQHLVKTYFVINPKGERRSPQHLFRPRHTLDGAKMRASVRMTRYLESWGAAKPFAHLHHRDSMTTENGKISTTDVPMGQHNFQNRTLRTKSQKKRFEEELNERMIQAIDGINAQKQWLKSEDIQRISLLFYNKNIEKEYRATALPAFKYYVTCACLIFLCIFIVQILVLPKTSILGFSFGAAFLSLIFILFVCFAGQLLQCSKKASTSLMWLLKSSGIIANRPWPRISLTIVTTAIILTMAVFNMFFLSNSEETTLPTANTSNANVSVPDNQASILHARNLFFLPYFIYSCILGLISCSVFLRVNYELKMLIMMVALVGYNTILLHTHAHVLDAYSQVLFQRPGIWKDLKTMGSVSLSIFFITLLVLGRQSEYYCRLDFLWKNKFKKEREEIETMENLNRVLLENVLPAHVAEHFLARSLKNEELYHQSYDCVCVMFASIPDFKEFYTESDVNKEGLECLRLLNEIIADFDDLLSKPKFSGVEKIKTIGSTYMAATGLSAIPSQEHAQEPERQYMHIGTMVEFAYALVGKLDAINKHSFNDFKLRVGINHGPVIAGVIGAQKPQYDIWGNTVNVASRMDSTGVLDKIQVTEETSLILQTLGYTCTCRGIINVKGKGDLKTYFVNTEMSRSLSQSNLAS
# T4 sequence (Q00722 whole entry): as the sequence (Q00722 whole entry) above
Substance,affinity of PLC-β2 stimulation compared with parent or comparator peptide (in words) [1],stimulation of PLC-β2 activity by peptide itself (in words) [1],other results
S97R substituted peptide: six amino acid Gβ96-101 peptide with arginine at position 97 (SEQ ID NO:10) (RRSWVM; listed as Homo sapiens),increase affinity; also recorded: higher affinity,–,–
"S97,98R Gβ86-105 peptide: Gβ86-105 peptide with both serines 97 and 98 substituted with arginine (TTNKVHAIPLRRRWVMTCAY)",–,–,increase in affinity of PLC-β2 stimulation versus Gβ86-105 peptide ([1]; substituted Gβ86-105 peptides): five-fold increase
"FLLT: unrelated peptide encoding region 660-688 of adenylyl cyclase 6, same overall charge as Gβ86-105 (KYSRKVDPRFGAYVACALLVFCFICFIQL; UniProt O43306 660-688, looked up, fragment) [reference compound]",–,no measurable effects,–
m-TTN: Gβ86-105 peptide with Met-101 substituted by Asn (TTNKVHAIPLRSSWVNTCAY),–,not capable of activating,inhibition of Gβγ-stimulated AC2 activity (adenylyl cyclase 2 (AC2)): much less efficacious; inhibition of Ca2+/CaM-stimulated AC1 activity by peptide alone (in words) (adenylyl cyclase 1 (AC1)): greatly reduced capacity to inhibit; blockade of Gβγ inhibition of Ca2+/CaM-stimulated AC1 (adenylyl cyclase 1 (AC1)): did not affect; binding to PLC-β2 (in words) (PLC-β2): did not display measurable binding
H91A: Gβ86-105 peptide with H91A substitution (TTNKVAAIPLRSSWVMTCAY),decreased the affinity,–,maximal stimulation / efficacy on PLC-β2 (in words) [1]: did not affect maximal stimulation
Gβ89-101: thirteen amino acid peptide encoding Gβ residues 89-101 (SEQ ID NO:7) (KVHAIPLRSSWVM; listed as Homo sapiens),–,did stimulate,–
m-GGL: Gβ115-135 peptide with Tyr-124 converted to Val (GGLDNICSIVNLKTREGNVRV),–,–,inhibition of Gβγ-stimulated AC2 activity (adenylyl cyclase 2 (AC2)): less effective; inhibition of Ca2+/CaM-stimulated AC1 activity by peptide alone (in words) (adenylyl cyclase 1 (AC1)): did not inhibit the AC1 activity as extensively; blockade of Gβγ inhibition of Ca2+/CaM-stimulated AC1 (adenylyl cyclase 1 (AC1)): no effect; effect on Gβγ stimulation of PLC-β2 (in words) [1]: inactive
"S98R Gβ96-101: six amino acid Gβ96-101 peptide with arginine substituted at position 98 (RSRWVM; UniProt P62873 96-101, looked up, variant S98R)",increase affinity,–,–
"S97, 98D: Gβ86-105 peptide with serines 97 and 98 substituted (D per FIG. 7C legend; text says asparagine) (TTNKVHAIPLRDDWVMTCAY; not fully specified)",–,inactive,–
"S97, 98D Gβ96-101: six amino acid Gβ96-101 peptide with serines 97 and 98 substituted with Asp (RDDWVM)",–,did not stimulate,–
Gβ96-98: three amino acid peptide encoding Gβ residues 96-98 (RSS),–,did not stimulate,–
"S97, 98C: Gβ86-105 peptide with serines 97 and 98 substituted with cysteine (TTNKVHAIPLRCCWVMTCAY)",greatly reduced affinity,–,–
K89A: Gβ86-105 peptide with K89A substitution (TTNAVHAIPLRSSWVMTCAY),decreased the affinity,–,maximal stimulation / efficacy on PLC-β2 (in words) [1]: did not affect maximal stimulation
"K89A, H91A, and R96A triple substituted peptide: Gβ86-105 peptide with K89, H91 and R96 substituted simultaneously (TTNAVAAIPLASSWVMTCAY; UniProt P62873 86-105, looked up, variant K89A H91A R96A)",–,did not stimulate,effect on Gβγ stimulation of PLC-β2 (in words) [1]: did not affect
R96A: Gβ86-105 peptide with R96A substitution (TTNKVHAIPLASSWVMTCAY),decreased the affinity; also recorded: large shift in affinity,–,maximal stimulation / efficacy on PLC-β2 (in words) [1]: did not affect maximal stimulation
Gβ96-101: six amino acid peptide encoding Gβ residues 96-101 (SEQ ID NO:8) (RSSWVM; listed as Homo sapiens),considerably lower affinity,did stimulate,–
